Common to all, as to experiment: purified protein
Substrate in data set [1]: C[C@@H](O)[C@@H](C)O
The settings on record: oxidation, 0.64 mM NAD+, 50 mM CAPS pH 10.0, 45 °C (b26 prints the pH and temperature of the two directions swapped).

Substrate in data set [2]: CC(=O)C(C)=O
The format is biochemical, Rhodococcus erythropolis. Particulars: reduction; 0.4 mM NADH; 50 mM PIPES pH 6.5, 55 °C (swapped); pH 6.5; 55.0 °C.

Substrate in data set [3]: NC(=O)C1=CN([C@@H]2O[C@H](COP(=O)(O)OP(=O)(O)OC[C@H]3O[C@@H](n4cnc5c(N)ncnc54)[C@H](O)[C@@H]3O)[C@@H](O)[C@H]2O)C=CC1
The format is biochemical, Rhodococcus erythropolis. The settings on record: reduction; 50 mM diacetyl; 50 mM PIPES pH 6.5, 55 °C; pH 6.5; 55.0 °C; varied: cofactor.

Substrate in data set [4]: NC(=O)c1ccc[n+]([C@@H]2O[C@H](COP(=O)(O)OP(=O)(O)OC[C@H]3O[C@@H](n4cnc5c(N)ncnc54)[C@H](O)[C@@H]3O)[C@@H](O)[C@H]2O)c1
It is filed as biochemical, Rhodococcus erythropolis. Particulars: oxidation; 50 mM (2R,3R)-2,3-butanediol; 50 mM CAPS pH 10.0, 45 °C; pH 10.0; 45.0 °C; varied: cofactor.

B1: ReBDH (Rhodococcus erythropolis PR4) (protein)
chain: MKAARFHGQKDIRIEEIPEPELRPGTVKLKVAWCGICGTDLHEYLEGPIFISAPGHPHPLSHENAPVTMGHEFSGTVEEVGEGVTDVEVGENVVVEPYFVCNECAPCKAGNYHLCTKMGFIGLAGGGGGLSEKVVVDRRWIHKIGNIPLDEAALIEPLSVAHHAVVRSGAESGNVAIVGGAGPIGLLVAAVLKGLGVTTIVTELSEARKAKALSSGVADYVIDPTTEDVKARVLELSGGIGADIGFECAGVNAVLDTMLDTVRPAGVVVNVSIWGKPATIDMQKLVLKEIDLRGTIAYVRDHEAVIKMVQDGVVDLAPFITGRIQLEELISEGFTTLIEHNDTAVKILVRS
notes: full length, 351 residues, deduced 37180 Da; N-terminal His-tag (pEASY-E1) kept, E. coli BL21(DE3), Ni-NTA; native 45 kDa monomer
For orientation: Km means the concentration of substrate that gives half-maximal velocity. As a reminder, the Vmax is the top rate of the reaction or transport when substrate is in excess. A word on the kcat: it is the number of substrate molecules converted per active site and unit of time at saturation. One may read the kcat/Km as the second-order rate constant that governs catalysis at low substrate concentration. On to B1, for which the Michaelis constant (Km) in “purified protein [1]” is 580 ± 50 µM; in the data set “purified protein [2]”, 100 ± 10 µM; in “purified protein [3]”, 80 ± 10 µM; in “purified protein [4]”, 1040 ± 110 µM. Also, the Vmax turned out to be 6.65 µmol/min/mg in “purified protein [1]”, 9.49 µmol/min/mg in the data set “purified protein [2]”, 8.92 µmol/min/mg in “purified protein [3]” and 16 µmol/min/mg in “purified protein [4]”. In addition, the kcat in “purified protein [1]” came out at 4.28 s⁻¹; in the data set “purified protein [2]” it was 6.11 ± 0.14 s⁻¹; in the data set “purified protein [3]”, 5.73 ± 0.08 s⁻¹; in “purified protein [4]”, 10.3 ± 0.69 s⁻¹. For the same protein, the catalytic efficiency (kcat/Km) worked out at 7380 M⁻¹ s⁻¹ in “purified protein [1]”, 61100 ± 7650 M⁻¹ s⁻¹ in the data set “purified protein [2]”, 71600 ± 10100 M⁻¹ s⁻¹ in “purified protein [3]” and 9880 ± 1780 M⁻¹ s⁻¹ in “purified protein [4]”.

The values above are taken from publication PMC6272300, “Characterization of a (2R,3R)-2,3-Butanediol Dehydrogenase from Rhodococcus erythropolis WZ010” (Molecules, 2015).
